Two molecules from patent US20210347868A1 (published 2021) can be followed below.

Assay [1] deals with full-length (140 amino acid) human alpha-synuclein with C-terminal AviTag, biotinylated, his-tag removed by … (human, UniProt P37840 1-140). Kind of assay: isothermal titration calorimetry in PBS, antibody:synuclein (1:2) model; Kd only on the graph. As to the method: FIGS. 5A-5C show affinity binding of human anti-synuclein antibodies for full-length synuclein protein as determined by isothermal titration calorimetry (ITC). […] The thermodynamic parameters and the equilibrium dissociation constants, Kd, were determined upon fitting the ITC data to a model assuming a single set of binding sites corresponding to an antibody:synuclein (1:2) binding model. Continuous lines represent the best fit of experimental data assuming a single set of binding sites. Experiments were performed in PBS. Equilibrium dissociation constants (Kd) are shown on the individual graphs.
The affinities of antibodies for full length synuclein protein were determined in solution on a MicroCal Auto-iTC200 system (Malvern Panalystical; Malvern, United Kingdom). […] The thermodynamic parameters and the equilibrium dissociation constants, Kd, were determined upon fitting the ITC data to a model assuming a single set of binding sites corresponding to an antibody:synuclein (1:2) binding model (FIG. 5).

For assay [2], the target named is T1, biotinylated alpha-synuclein peptide, residues 111-140 (human, biotinylated (position not given)).
T1 construct: also called syn111-140
The experiment in a line: Octet biolayer interferometry, biotinylated peptide on streptavidin biosensor.

For assay [3], the target named is T2, biotinylated alpha-synuclein peptide, residues 121-140 (human, biotinylated (position not given)).
T2 construct: also called syn121-140
The experiment in a line: Octet biolayer interferometry; table of peptide regions bound by anti-synuclein mAbs.

B1: human anti-alpha-synuclein antibody 336.1 (hantiAsyn-336.1) (antibody, V domains shown)
VH: EVQLVQSGGTLVQPGGSLRLSCAASGFTFSTYAISWVRQAPGRGLEWVSFITGDGSRILYADSVRGRFSISRDNSKNTLYLQMNSLRTDDTAMYYCVFNHYWGQGTLVTVSS
VL: AIQLTQSPDSLAVSLGERATINCKASQSLLYSSNNRNYLAWYQQKPGQPPKALIYWASTRESGVPDRFSGSGSGTDFTLTISSLQAEDVAVYYCHQYYTTHSFGQGTKLEIK
On to B1, for which the binding result in assay [1] and in assay [2] was “binds” in each case.

B2: human anti-alpha-synuclein antibody 323.1 (hantiAsyn-323.1) (antibody, V domains shown)
VH: EVQLLESGGGLVQPGGSLKLSCAASGFTFSASAMHWVRQTSDKRLEWVGRIRNKANNYATAYAASVKGRFTISRDDSKNTAYLQMNSLKTEDTAVYYCTRHLSLGGNSVDYWGQGTPVTVSS
VL: DVVMTQSPLSSPVTLGQPASISCRASQSPVHSDGNTYLSWLQQRPGQPPRLLIYTISNRFPGVPDRFSGSGAGTDFTLRISRVEAEDVGVYYCMQGTQFPYTFGQGTKLEIK
Regarding B2, the binding result in assay [1], in assay [2] and in assay [3] was “binds” throughout.
